The data set in a line: soluble on expression in E. coli; label from the status in PepcDB or PDB records.
Take “ESKLEGKAAQDIKDEEPGDLGRPKPECEGYDPNALYCICRQPHNNRFMICCDRCEEWFHGDCVGISEARGRLLERNGEDYICPNCTILQVQDETHSETADQQEAKWRPGDADGTDCTSIGTIEQKSSEDQGIKGRIEKAANPSGKKKLKIFQPGPGPVPTQLPVLWQVLEIAVSRSISAFTLLHCISCKVIEAPGASKCIGPGCCHVAQPDSVYCSNDCILKHAAATMKFLSSGKEQKPKPKEKMKMKPEKPSLPKCGAQAGIKISSVHKRPAPEKKETTVKKAVVVPARSEALGKEAACESSTPSWASDHNYNAVKPEKTAAPSPSLLYKSTKEDRRSEEKAAATAASKKTAPPGSTVGKQPAPRNLVPKKSSFANVAAATPAIKKPPSGFKGTIPKRPWLSATPSSGASAARQAGPAPAAATAASKKFPGSAALVGAVRKPVVPSVPMASPAPGRLGAMSAAPSQPNSQIRQNIRRSLKEILWKRVNDSDDLIMTENEVGKIALHIEKEMFNLFQVTDNRYKSKYRSIMFNLKDPKNQGLFHRVLREEISLAKLVRLKPEELVSKELSTWKERPARSVMESRTKLHNESKKTAPRQEAIPDLEDSPPVSDSEEQQESARAVPEKSTAPLLDVFSSMLKDTTSQHRAHLFDLNCKICTGQVPSAEDEPAPKKQKLSASVKKEDLKSKHDSSAPDPAPDSADEVMPEAVPEVASEPGLESASHPNVDRTYFPGPPGDGHPEPSPLEDLSPCPASCGSGVVTTVTVSGRDPRTAPSSSCTAVASAASRPDSTHMVEARQDVPKPVLTSVMVPKSILAKPSSSPDPRYLSVPPSPNISTSESRSPPEGDTTLFLSRLSTIWKGFINMQSVAKFVTKAYPVSGCFDYLSEDLPDTIHIGGRIAPKTVWDYVGKLKSSVSKELCLIRFHPATEEEEVAYISLYSYFSSRGRFGVVANNNRHVKDLYLIPLSAQDPVPSKLLPFEGPGKRRLSGWR”: the “soluble on expression in E. coli” value is reported as “soluble”. For “MGSDKIHHHHHHMGLEQDDEGGARRACVIVIGNQKGGSGKSTVAMHLVVSLARAGLRTGSIDLDAGQATLTRYLENRRAFAEKRGLDLPSPEHVPMVPGTSLEADIRRLEHSMLAFHEEVDVVVIDTPGSDTALNRAAHALADVLITPLNDSFIDLDVMARIDGDSMTITGPSPYAAAVWEAKQARARRDGTSMRWIVMRNRLSHLDARNKRDMEDALNDLSRRIGFSVVPGLGERVIYRELFLNGLTLLDLKDKGTGVDISMSHVAARQELRALLAAIGMPKSIGL”, the “soluble on expression in E. coli” value was “not soluble”. The value for “MPAVAFPVSSPRLLARAVQIAVLAMGALCVGCQSVDYSPPRQDRPPRLVSGLVYWGGDDKEGSRAADKISDLPVYNGEDVWQRVAQRCRLVDGQGMNERIARQRDWLLSNRGFITGASVRASPYLHFIVERLDERNMPLELALLPMIESSYNPMANSPAAAAGLWQFIPSTGRSFNLHQSATYDARRDVVASSKAAMDYLTRLHDQFNNDWLLALAAYNAGEGTVGRAIEANRRRGLPVDYWNLNLPKETQDYVPRLLALSMVVRNPNAYGVKLTPVANTPYFDVVELNHAVDLTQLAATAGVDEGQLLRLNSAFLRKKTFDGPGRLLIPKTQNRVLTTSIARITGESPVTASIPLVTPSAIVKRAAERLPAPAPVAERPVRVAERPPLPKPVQSAQLAENLPSPKTAQPLPVAQQPTAPEALQPAPAAESAPAVEIAQSAPVVEPDPLTNRIQLPRIRDDRSSPRKRDDDEYRSGPRELPTGPRVVVFASDPRQLEHHHHHH” was “not soluble”; that for “MGSDKIHHHHHHMVAVPQAHPLSVAEYLQFEAASEIKHEYRAGEVYAMADITDVHNTIVGNWVALIRSHVRGSSDRVYCSAMQVWLQQANCIYYPDLLVTCDPRDQETVNYKRFPKLIVEVLSPSTEAFDRGDKFADYQTLETLEEYVLISTSRQRVDCFRRSLEGVWTLQFYLPNAEVLPLRSIGLEVRLSDLYEDVTLPAPPSIPESLEESR” was “not soluble”. With “MSLENTDINISALLNVDIDKILKQTIKEKIEKLMEIELNAYLEENPGIKNGKYKRDLKTKYGEIKQLNVPRDRDSNFHTQVIEPYNRSIGMEDLIVSMYSNGISTRRIAGIMEDILGNKYSKSTISRITDLTIEEVYKFINRPLDKRYIAVFLDGLFFYLRRGNVDKEPVIFALGIKETGEYEVLGFYLTVKESHNAYKEVLEDLYNRGLKEPLLIVADGIKNLDEEVMEIYPRSEFQLCTIHYARGLKSNVREKDIDEITIDANKMFKCDNKEEAIIRFNDFKYKWKSKYPKVIYNTEKNLGKLLRFYNYPVNIRKSLKSTNAIERFNGEVRRRVKTISSFPDEDSAMKVFYYKSIEYNSKHAFRKMNGYYKCKDEIKEMFQKREGHHHHHH” the entry was “not soluble”; with “MSLNAPQWLGAEGEKIAARHLAAKGYRIVARNYRFHRNEIDIIAFDGEALCFIEVKTRASLGKGHPAESVTRSKQKEIARAAAGYLASLDDPWITCRFDVIAVLALSIDERSIRKYEIEHIKAAFMVGDKGEGHHHHHH”, “soluble”; with “MSLGYTTAKKEVSVVIEDGINEIINKTERFVSLKLESDISLASSIVDSISLRISDEQYINDIINGNAIKKAFLSTGFGFDSNGKVIENDPNWEPEDDYDPRSRGWYQEAKKNKRIFITEPYLDTEGKNFLVSISSPVADTMNNFIGAMYFDVDLSRIQKNVDDINLFEAGYVFITSNTGKVIIHSNTDELGKNVKDIYNGFRLDKGKVVLSVNGVNKWLYTSPILGGDWFIIAVIDESIAMQSINKMKYEEGHHHHHH”, “soluble”. The value for “MENTENSVDSKSIKNLEPKIIHGSESMDSGISLDNSYKMDYPEMGLCIIINNKNFHKSTGMTSRSGTDVDAANLRETFRNLKYEVRNKNDLTREEIVELMRDVSKEDHSKRSSFVCVLLSHGEEGIIFGTNGPVDLKKITNFFRGDRCRSLTGKPKLFIIQACRGTELDCGIETDSGVDDDMACHKIPVDADFLYAYSTAPGYYSWRNSKDGSWFIQSLCAMLKQYADKLEFMHILTRVNRKVATEFESFSFDATFHAKKQIPCIVSMLTKELYFYH” was “soluble”; that for “MAHHHHHHMSSAHKPTTQEAINFFKQYREKFQRSSSGGNSPSQNSVNASPQQNIVTQVQQVDVVPDLTTRSIIPMNRRNGTTTTRLDLLRKSPTNCSPCLVQEVEIKPLLPPLPFASVPKVTLVLDVDETLVHSTFQPSSDVVYDKVLLVPSEGKTYTVSVKYRPYLEDFLRFVSRRFEVVIFTASMRAYCDKLMDEIDPHGILGNLRLFREHCTFSERSYVKDLHRLGRDLRRVVILDNSPAAYSFQQRNAIPIKTWINDPKDRELFLLLPLLDRLAMCDSVYSELDPYNARGCDYL” was “not soluble”.

Turning to “MGSDKIHHHHHHLKPNNNTNKGVDYWTNRISELEMPALCSTVKSLEKLAKDDVSSLALLGRSVMHDNALTSRILRVANSAIYHKGSSQISTVSRAAIVLGFDAVRNICITAKLLSSLLESKNLAPNVYQRLIKLMAKAFQAAMIARMMLSHHDEEMQEEAFIASLLYHIGESAFWSIGGEFTEELDLTLCQCETPAEERSATREALGASFLQLTQSIARNWGLGELLIQALNYPEDQRPDIRAIFLADKLCDILSQPVLDKLELAKRMTQAAIFTGLEEKEFLVRMQRCANATHKLAEVYGAKVLLDYLPDPKRIVAAEPDLPPIPLDMPVYQVNLNIQLAKLRELTGFAINKADFNQIMQTVLEGILEGVGVDRCGVLLLSPSRKQLQPRVILGRDADAIKQEFIIDLSDKRGLFHQAMEHKAPLWVDDPSSKNGRSSARSCKRGTCHGRAFYWRLCWLIAK”, the “soluble on expression in E. coli” value is recorded as “not soluble”. With “MEEEAAVEKPISLNQQRMNGVVAALKQSNARRVIDLGCGQGNLLKILLKDSFFEQITGVDVSYRSLEIAQERLDRLRLPRNQWERLQLIQGALTYQDKRFHGYDAATVIEVIEHLDLSRLGAFERVLFEFAQPKIVIVTTPNIEYNVKFANLPAGKLRHKDHRFEWTRSQFQNWANKITERFAYNVQFQPIGEADPEVGSPTQMAVFIHRGHHHHHH” the entry was “soluble”. The value for “MEQLKKQVCDYIESHEEESVKFLKRLIQEKSVSGDESGAQAIVIEKLRELGLELDIWEPSFSKMKDHPYFVSPRTSFSDSPNIVATLKGSGDGKSMILNGHIDVVPEGDVNQWEHHPYSGEKIGNRIYGRGTTDMKGGNVALMLAMEAIIESNIELKGDIYFQSVIEEESGGAGTLATILRGYKADGVIIPEPTNMKFFPKQQGSMWFRLRVKGKAAHGGTRYEGVSAIEKSMFVIEHVRKLEEKRNSRITDPLFKEIPIPIPINIGKIEGGSWPSSVPDELILEGRCGVAPNETIEAAKEEFENWIAELNDVDNWFVENPVEVEWFGARWVPGELEENHELITTLHHNFVEIEGNEPIIEASPWGTDGGLFTQIANVPTIVFGPGETKVAHYPNEYIEVDKMIAAAKIIACTLLDWCEVKK” was “not soluble”.

For the origin of these results see the DeepSol protein solubility set.
